{
  "source": "paper PMC10873205",
  "target": "UBR4_(xtal) (UBR4 residues 4,730–5,183) (human) (UniProt Q5T4S7)",
  "sequence (Q5T4S7 4730-5183)": "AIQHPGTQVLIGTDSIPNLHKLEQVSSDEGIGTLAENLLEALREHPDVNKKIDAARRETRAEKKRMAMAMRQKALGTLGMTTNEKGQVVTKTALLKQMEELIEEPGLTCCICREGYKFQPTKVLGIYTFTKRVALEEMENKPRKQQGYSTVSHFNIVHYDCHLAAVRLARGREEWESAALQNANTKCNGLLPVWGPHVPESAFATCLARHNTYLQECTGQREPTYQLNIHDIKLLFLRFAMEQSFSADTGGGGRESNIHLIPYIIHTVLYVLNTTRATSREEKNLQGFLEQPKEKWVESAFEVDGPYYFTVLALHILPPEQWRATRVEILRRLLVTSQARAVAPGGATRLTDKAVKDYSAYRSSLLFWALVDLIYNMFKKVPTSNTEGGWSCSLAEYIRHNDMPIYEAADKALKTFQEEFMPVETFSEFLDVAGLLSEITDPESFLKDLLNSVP",
  "assay": "ITC; UBR4 construct in the cell (74 μM), UBE2A in the syringe at tenfold higher concentration; 25 °C; 0.4 µl then 13 injections of 3 µl; UBE2A into buffer subtracted; single site binding model",
  "data": [
    {"substance": "UBE2A (from UniProt P49459 1-152) (enzyme)", "values": [
      {"measurement": "dH", "result": -13.9, "unit": "kcal/mol"}
    ]}
  ]
}
